Data published in patent US20230235013A1 (MABSOLVE, published 2023).

Target: T1, Histidine-tagged recombinant human FcγRI (CD64) (human, UniProt P12314 16-288)
T1 construct: bought; also called Sino Biological Cat. No. 12056-H08H
Assay: SPR, culture supernatant, captured His-FcγRI;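 note: biacore T200 SPR at 25 °C, anti-His capture, supernatants of HEK293 cells expressing IgG1 Fc variants injected 1 min, reference-subtracted response read 55 s after injection start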
Experimental: Binding analysis was carried out by surface plasmon resonance at 25° C. using a Biacore® T200 instrument with Biacore® T200 control software. The running buffer (HBS-EP+) consisted of 0.01 M HEPES pH 7.4, containing 0.15 M NaCl, 3 mM EDTA, and 0.05% v/v Surfactant P20. The sample compartment was held at 4° C. during analysis.
The cell was activated by treatment with EDC/NHS for 7 min. The antibody was diluted to 5 μg/mL in 10 mM sodium acetate pH 4.5 and injected for 7 min at 5 μL/min. The flow cell was deactivated by injection of 1M ethanolamine for 7 min. This process was repeated in the absence of anti-his antibody on a separate flow cell to generate a reference surface. […] Samples of undiluted culture supernatants from HEK293 cells expressing human IgG1 antibodies comprising variant Fc regions were injected for 1 min at 30 μL/min and allowed to disassociate for 2 min. […] Therefore, regeneration between cycles was not necessary. Responses on the test flow cell (coupled with anti-His antibody) were analysed after subtraction of responses on the control flow cell (sham-coupled). The relative binding response was measured 55 sec after the beginning of sample injection. To account for any possible drift in response due to slow dissociation of the His-tagged FcγRI, the binding response was measured relative to a baseline interpolated between report points located before sample injection and at the end of dissociation.
The whole experiment was repeated three times. Due to the relatively crude nature of the samples (variable refractive index, presence of culture media and other cellular products), some sensorgrams were unsatisfactory and were eliminated from analysis. The mean and standard deviation of binding response was then calculated for each sample.

| Mean binding response [RU] | Binder |
| --- | --- |
| 25.3 | anti-CD20 human IgG1 L234D/L235I/G236R (antibody, also called 1-22; copies: 2 + 2) heavy: QVQLQQPGAELVKPGASVKMSCKASGYTFTSYNMHWVKQTPGRGLEWIGAIYPGNGDTSYNQKFKGKATLTADKSSSTAYMQLSSLTSEDSAVYYCARSTYYGGDWYFNVWGAGTTVTVSSASTKGPSVFPLAPSSKSTSGGTAALGCLVKDYFPEPVTVSWNSGALTSGVHTFPAVLQSSGLYSLSSVVTVPSSSLGTQTYICNVNHKPSNTKVDKKVEPKSCDKTHTCPPCPAPEDIRGPSVFLFPPKPKDTLMISRTPEVTCVVVDVSHEDPEVKFNWYVDGVEVHNAKTKPREEQYNSTYRVVSVLTVLHQDWLNGKEYKCKVSNKALPAPIEKTISKAKGQPREPQVYTLPPSRDELTKNQVSLTCLVKGFYPSDIAVEWESNGQPENNYKTTPPVLDSDGSFFLYSKLTVDKSRWQQGNVFSCSVMHEALHNHYTQKSLSLSPGK light: QIVLSQSPAILSASPGEKVTMTCRASSSVSYIHWFQQKPGSSPKPWIYATSNLASGVPVRFSGSGSGTSYSLTISRVEAEDAATYYCQQWTSNPPTFGGGTKLEIKRTVAAPSVFIFPPSDEQLKSGTASVVCLLNNFYPREAKVQWKVDNALQSGNSQESVTEQDSKDSTYSLSSTLTLSKADYEKHKVYACEVTHQGLSSPVTKSFNRGEC |
| 28.4 | anti-CD20 human IgG1 L234D/L235M/G236R (antibody, also called 1-25; copies: 2 + 2) heavy: QVQLQQPGAELVKPGASVKMSCKASGYTFTSYNMHWVKQTPGRGLEWIGAIYPGNGDTSYNQKFKGKATLTADKSSSTAYMQLSSLTSEDSAVYYCARSTYYGGDWYFNVWGAGTTVTVSSASTKGPSVFPLAPSSKSTSGGTAALGCLVKDYFPEPVTVSWNSGALTSGVHTFPAVLQSSGLYSLSSVVTVPSSSLGTQTYICNVNHKPSNTKVDKKVEPKSCDKTHTCPPCPAPEDMRGPSVFLFPPKPKDTLMISRTPEVTCVVVDVSHEDPEVKFNWYVDGVEVHNAKTKPREEQYNSTYRVVSVLTVLHQDWLNGKEYKCKVSNKALPAPIEKTISKAKGQPREPQVYTLPPSRDELTKNQVSLTCLVKGFYPSDIAVEWESNGQPENNYKTTPPVLDSDGSFFLYSKLTVDKSRWQQGNVFSCSVMHEALHNHYTQKSLSLSPGK light: QIVLSQSPAILSASPGEKVTMTCRASSSVSYIHWFQQKPGSSPKPWIYATSNLASGVPVRFSGSGSGTSYSLTISRVEAEDAATYYCQQWTSNPPTFGGGTKLEIKRTVAAPSVFIFPPSDEQLKSGTASVVCLLNNFYPREAKVQWKVDNALQSGNSQESVTEQDSKDSTYSLSSTLTLSKADYEKHKVYACEVTHQGLSSPVTKSFNRGEC |
| 26.5 | anti-CD20 human IgG1 L234D/L235N/G236R (antibody, also called 1-26; copies: 2 + 2) heavy: QVQLQQPGAELVKPGASVKMSCKASGYTFTSYNMHWVKQTPGRGLEWIGAIYPGNGDTSYNQKFKGKATLTADKSSSTAYMQLSSLTSEDSAVYYCARSTYYGGDWYFNVWGAGTTVTVSSASTKGPSVFPLAPSSKSTSGGTAALGCLVKDYFPEPVTVSWNSGALTSGVHTFPAVLQSSGLYSLSSVVTVPSSSLGTQTYICNVNHKPSNTKVDKKVEPKSCDKTHTCPPCPAPEDNRGPSVFLFPPKPKDTLMISRTPEVTCVVVDVSHEDPEVKFNWYVDGVEVHNAKTKPREEQYNSTYRVVSVLTVLHQDWLNGKEYKCKVSNKALPAPIEKTISKAKGQPREPQVYTLPPSRDELTKNQVSLTCLVKGFYPSDIAVEWESNGQPENNYKTTPPVLDSDGSFFLYSKLTVDKSRWQQGNVFSCSVMHEALHNHYTQKSLSLSPGK light: QIVLSQSPAILSASPGEKVTMTCRASSSVSYIHWFQQKPGSSPKPWIYATSNLASGVPVRFSGSGSGTSYSLTISRVEAEDAATYYCQQWTSNPPTFGGGTKLEIKRTVAAPSVFIFPPSDEQLKSGTASVVCLLNNFYPREAKVQWKVDNALQSGNSQESVTEQDSKDSTYSLSSTLTLSKADYEKHKVYACEVTHQGLSSPVTKSFNRGEC |
